Laboratory results published in the domain aggregation screens of Martell et al. (2025).

Test: soluble fraction after stress (log2 fold change); higher = more stays soluble; pooled small domains, quantitative proteomics
Conditions: stress: 50 degC
Outline: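 The stress applied to every library was 50°C. These custom libraries of small protein domains were pooled and measured at high throughput with quantitative proteomics as the read-out. Aggregation propensity is expressed as the base-two logarithm of the fold change in how much of each protein remains soluble. The higher the value, the more of that protein stays in solution.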

| Sequence | soluble fraction (log2) |
| --- | --- |
| HMADVIKLVNTSVLNVRSGAGINYSKIGSLTQGTKVNIISESNGWSKINYNGKIGYISSQYVSEVS | -0.206 |
| HMGQHSAELKLHPQDLGQVTISMKVEDNQAQLQMVSGHGHVRAALEAALPQLRSQLADSGIQLTQSSIS | -0.146 |
| HMERGEFQKLGRATLEQTLARAGKTLAEVSLKAMLETFAFAAEEDLYEALGRGRVSAAKVGETLFPALKGR | -0.0985 |
| HMELADNFAKLILTARESKGWTQAQLGQRMAETINVIKSAESGKPPADSVIRKFEMILGIELM | -1.96 |
| HMVSMSFDDYVNDAKEYESEGDKDKAYNSYLEAYKLNKSSEEVLDYLIDNTEDVTLKLNYVYEYLDL | -0.0996 |
| HMAAINPSALREPATPPEQLSAGDSVLHPRFGRGEILELQQQGGDPRAIVQFINEPKPRTLVLRYAQLRK | -0.049 |
| HMNVNSMIGKEGRVIEDIDNFNETGRIIVDGMEWTARAVNEQSITSGQKVVIREIQGVKAMVVPM | 0.187 |
| HMNSEFPFNGGRIVDNVPANRLQIFFDEKPDADVRTRLKQNGFRWAPNSGAWQSYRHGYTLDWARREFNA | 0.134 |
| HMSDNYYSILGIETDATTDMIKRAYRRLSLELHPDRTKDNPILTEKYKKVNEAYGVLNDNDRKHIYDLQNI | -0.216 |
| HMTALSIGTVVRFTGDRHYISSTGDTGYPASPGLAKITSINPGSKHPYHLIHIDNTSNVYGWVNKQDIIT | 0.16 |
| HMKFPPELVEFIEGLSLLKPPLNYATVHRRAEKLAIKKGWASPSYSTVRNIIRKLSPALTTLAHEG | -2.15 |
| HMDFFTAAPEEDEIGKRIDVYIAEYKEELSRSRVQKLIENGLVTVNGKAVKSNYKLRKGDILEVEIPDPE | 0.0151 |
| HMRIVSGRESMLGRTVVVADWAGERGHVVVDGERWNAVASTPLAAGRRARIVGIDGLTLSVSPDDKP | 0.216 |
| HMEVHLMPGTVLLREYESNEYRVTVTPEGFYDLNGKVFKSLSAVARHITGVNWSGPRFFGVEP | -2.08 |
| HMDFYIVLGVDRAASVSDVKRAYRRLARKYHPDINPGDREAEAFFLRVTEAYETLIDPDRRQDYDVNG | -0.94 |
| HMVSPLEKSQSFGSFEISREFARTLGLTSARNWENWAASDSRPINIPYSPNVFYKNKGWIDWSDWLGTE | -0.286 |
| HMKSNKEKIYDFIQMHDTAEKEGGVSTTYIAQALSLQRTNVSSLLNALVEEGRIHKSNGRPVLYSIAG | 0.0955 |
| HMNIGEKIKTLRENNNISIEELAEKINDSIENILKYENNELEPTLDKKLALSIALGVTLSDLS | -0.114 |
| HMTVRLSVSADGKFFWNESQVSEEELFPRLQAEAAKEPQPDLHIRGDKNVRYEFVAQAMAAAQRAGVRKI | -0.404 |
| HMKPPVQVIGKAVVTASSLNVRTGPGTGHGIITSLPRNTEVELLEQQGEWYKIRRGSTVGYVHGGYLKIN | -0.00404 |
| HMITEDQVIARIGLLSPAEKSLLKDKLERFRRLTLSEQQHLREFHSALDNHDKRTDLLNVLRKYNDWVNQL | -1.67 |
| HMAMYYVIGGDGQQYGPIDEATVRGWLGEGRVSAASLSFKTGEAQWIPLRDRPELADVLATA | 0.112 |
| HMETLSKVGSTGSEVRQIQTKLKNWGYFSDKVDGIYGEKTRAAVVWFQKKNGLTADGIAGPATLKAMGIYT | -0.171 |
| HMNDRRQDVFELLKSSERPVSAADLAHKFGVTRQVIVADIALLRASDIDIVSTNRGYILKANL | -1.49 |
| HMLAERKERDKAELKELILDAAKKILLKNGQEGLSIRKIATTVEYSPATIYLYFKDKDEILHELMEMG | 0.317 |
| HMSAIKSVTTQLDNTKLRTGPDVSYQYTQSYPANTKLTYINKSGTWYQVKDADGNTGYVASWVVTPSE | 0.236 |
| HMDTNRIIGNKIYQLRRSINMTQQELAEKVGISVTFLSEIENGRKSMSVDTLIKLSKGLQVSLDTIVF | -1.46 |
| HMPTQTEELRRRIVADVNAGEPGAKLGSERELAERYGTSRSSLRQVLAALQEAGLIDRVIGRSGGIFISH | -0.0372 |

| Sequence | soluble fraction (log2) |
| --- | --- |
| HMPLSLESVSEGGRNDTAARIAGYLIAKGLNVDFARFFLQSWNTKNKPPLDDTEIDTIVNSIMKTHERKNQ | -0.361 |
| HMGGLAEIILNAIEIEGGFLPITDKSAPELIQSRLGMSKKAFKEAVGTLYKNRDIAIEPNGLRKI | 0.0577 |
| HMKNSAAKETILAFLKKNGGELFTQMQIIEKFQKMIPAPVLRITLEELLNKGQVEITSKGKYYLSVKGS | -0.587 |
| HMEETIVFGQQKAINALSSDAGLSSNELDSYLKKRYKRPLYQLSKSEGAELIQGFQDGSLSKASIMDYVS | 0.169 |
| HMSSTSISFNDFQKYWLSNDIKSFQLREDKMTVQGSLKNGTAYETVVPSERLFQFIGQHPKD | 0.368 |
| HMLSRKEVFTVSQKDIEKNPIGAADKFFDGHVGIHKLLVVDEEDRLRGLFTLSDIERINDEQ | 0.0269 |
| HMSAAMTESVLDGIPGLGATRKAALLAHFGSVRKLRAATSEQVREVPGIGPRLAETILATLHEP | -0.181 |
| HMQVQHVWNRLKRPNGDVLYEINRDHPLVSASLDAAADRGAIETLLRQIEQSLPVNQLYVDMNADEHFE | -0.301 |
| HMNSFGWESLIDKEGIADTDLHPSGWVRIDDRRIFVVSEGDFIDKGSGVTVLSVDGNRVVVRELI | -0.836 |
| HMNTQGWEIFEGRITTADTDLNPSGWIRIDGQRIFVISDAGFIDKGKEVSILSVDGNRVLVRK | -0.641 |
| HMQTPPGRYRHYKGGLYEVIATARHSETLEPMTVYRALYGEQGLWVRPAAMFAEDITLEGVRQPRFARI | -1.91 |
| HMLELDRTNLLGVFGSKSNPYALIMLSNGEMLKLSIGDQFLGWRVYAIDQTTVHVQNGKNQEILRIP | -1.13 |
| HMTIDTSNDLLNQITEATSKGPISILELKDQLNVNASDIEGELRTLIDQHLVFLKDGMLQVIPFD | -0.0624 |
| HMKIDEVSFAYIERTLFSMLGKLPTPVNKVIATIGEEKKETIWEVIRFLESENKLITNEDGTLQL | -1.55 |
| HMGDVSGFLRGVLADGPVPAKTVFSEASGAGYSRDQIQRAARKIGVERRKTGMAGGWVWELEP | 0.014 |
| HMHNQIGDKIRELRTRSNLTQADLGKLVGVSMQAVSKWERGGTPDIDVLLSVAKYFNISLDEMVGRT | -1.08 |
| HMKEVVVPDYFLKQLQKNKKAFITFNNFSPSHKREYVEWITEAKTEETKNRRMKSAIEWMSEGKSRNWKYI | 0.0292 |
| HMAKIPASTVVEIDGAPVVVAVRVNARARSYRLSIPHSGGPLLTLPPHGKWAEAEAFLLRHHNWLAARLHR | -2.47 |
| HMRLEYLVDVEEISIKEYLMLLGLSRRLARKIKLYGKMYINHQEAFNYHLVKKGDLLTIEFDE | -2.55 |
| HMSASSEALKTAVRKVLLNNRMTQDRMARDAGLSGSALSQWLHGKYQGDVPALEGRLAAWLADTQAS | 0.0546 |
| HMILNWSEYTRSEIIELARDLSPDKYMIIDDINTYSKMKLLPSQAFIAEMFGSLRQFQKEAWGRE | -1.88 |
| HMSSQADEEALFKLLAANPYSDEQLEEIRIAIGSGIAYKDIIRIADIGNTAERMKQLRLEFTKDTAN | -0.0428 |
| HMRFTVSDKMDMLLKSLSAGQSMPFKSLFASASTKSEVIVTFLALLELMKLNQFVVWQDQILGEIEIERR | -0.554 |
| HMHDNPLSAQEQRVLDLIAAGKTSKEIASQLFLSDGTVRNYTTSIFNKLNANNRVEAINIAQENGW | 0.486 |
| HMKEKPLWAIRITELREEHYFTQTDVSKALGIAQTTYAGYETGRHEPDFETMIKIADIYKVSLDYLIGR | -1.27 |
| HMDDLTTASIKQQLKALIDEENKNKPLSDQKLTDALKAQGIDISRRTVAKYREAMNIPGSSKRKRF | 0.0936 |
| HMHRAKRTKAQTQSSLESIEGIGPKTRKQLLVHFGGLAEVKAASVSELQKVKGISLDKAQKIYDFFHGS | 0.00473 |
